Experimental data taken from PMC7443878 (Proceedings of the National Academy of Sciences of the …, 2020).

B1: recombinant MBP-RIPK1 RHIM domain (496–583) (domain or fragment)
chain: HMPSLHNIPVPETNYLGNTPTMPFSSLPPTDESIKYTIYNSTGIQIGAYNYMEIGGTSSSLLDSTNTNFKEEPAAKYQAIFDNTTSLT
B2: His-MBP-RIPK3 (388–514) (domain or fragment)
chain: SSDSMAQPPQTPETSTFRNQMPSPTSTGTPSPGPRGNQGAERQGMNWSCRTPEPNPVTGRPLVNIYNCSGVQVGDNNYLTMQQTTALPTWGLAPSGKGRGLQHPPPVGSQEGPKDPEAWSRPQGWYN

Experiments:
His-MBP-RIPK3 (388–514) = target: B2; test: pull-down
MBP-MYC (1–144) = MBP-MYC (1–144) (UniProt P01106-1 1-144); test: pull-down
Sequence of MBP-MYC (1–144) (P01106 16-159): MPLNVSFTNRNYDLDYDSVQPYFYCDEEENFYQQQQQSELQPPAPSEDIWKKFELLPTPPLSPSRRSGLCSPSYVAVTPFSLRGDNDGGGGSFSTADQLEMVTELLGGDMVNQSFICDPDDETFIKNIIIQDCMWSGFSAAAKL

binding result (His-MBP-RIPK3 (388–514))	binding result (MBP-MYC (1–144))	Binder
binds		B1
	binds	B2
